The target in assay [1] is T1, human SIGLEC15 on CHO-S-hSIGLEC15 cells (human, UniProt Q6ZMC9 20-328).
T1 sequence: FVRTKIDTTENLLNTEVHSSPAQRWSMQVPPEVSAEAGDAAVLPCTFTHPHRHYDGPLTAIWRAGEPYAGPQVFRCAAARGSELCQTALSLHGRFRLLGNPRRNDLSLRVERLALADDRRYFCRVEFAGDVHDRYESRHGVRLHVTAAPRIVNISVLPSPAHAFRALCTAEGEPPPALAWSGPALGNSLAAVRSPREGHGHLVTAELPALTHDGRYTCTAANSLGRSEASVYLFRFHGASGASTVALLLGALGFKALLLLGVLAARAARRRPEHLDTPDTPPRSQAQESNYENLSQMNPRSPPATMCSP
Kind of assay: flow cytometry (MFI) on CHO-S-hSIGLEC15 cells; antibody sample: pH 3.5 0 h. The method, then: (§1) In the activity detection experiment, 30 μL of CHO-S-hSIGLEC15 cells were added to the culture plate, and the antibody to be tested was added in a gradient dilution ([…]), and incubated at 4° C. for 30 min. The plate was washed with PBS, and diluted secondary antibody Anti-hIgG-Fc-Alex Flour 647 (RL1-H) (1:2000) was added, incubated at 4° C. for 30 min. The plate was washed once with PBS and the cells were resuspended for flow cytometry detection. MFI value was derived by FlowJo 7.6.1 analysis to calculate EC50.

Assay [2] addresses T1, human SIGLEC15 on CHO-S-hSIGLEC15 cells. Kind of assay: flow cytometry (MFI) on CHO-S-hSIGLEC15 cells; antibody sample: pH 3.5 6 h. The method, then:
as §1

The target is the same in assay [3]. Nature of the assay: flow cytometry (MFI) on CHO-S-hSIGLEC15 cells; antibody sample: 4° C. 7 d. As to the method: as §1
The target in assay [4] is T2, hSIGLEC15 protein captured in the epitope analysis of Example 4 (human, UniProt Q6ZMC9 20-263, limits assumed).
T2 sequence: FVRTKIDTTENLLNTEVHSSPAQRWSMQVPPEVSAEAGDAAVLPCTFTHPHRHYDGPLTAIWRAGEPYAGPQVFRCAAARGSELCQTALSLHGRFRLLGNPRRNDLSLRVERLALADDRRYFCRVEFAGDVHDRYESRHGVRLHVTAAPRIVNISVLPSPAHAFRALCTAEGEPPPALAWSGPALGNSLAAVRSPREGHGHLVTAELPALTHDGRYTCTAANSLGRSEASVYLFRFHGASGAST
Nature of the assay: BLI pairwise binning on captured hSIGLEC15, 200 nM each antibody; competitor 23F4. The method, then:
Relative positions of target protein epitope between a pair of purified anti-SIGLEC15 antibodies were analyzed by Biolayer Interferometry (BLI) using ForteBio Octet system at 30° C. A total of 4 purified antibodies were used: 5G12, 10A7, 10C9 and 23F4.
1×HBS-EP+ buffer (10 mM 4-(2-hydroxyethyl)-1-piperazineethanesulfonic acid (HEPES), 150 mM NaCl, 3 mM ethylenediaminetetraacetic acid (EDTA) and 0.05% P20, pH7.4) diluted from HBS-EP+ buffer (10×) was used as the running buffer throughout the experiment. About 100 RU of hSIGLEC15 protein was captured at a flow rate of 10 μL/min, and 200 nM of antibody was injected at a flow rate of 30 μL/min to bind the ligand. Another antibody was injected under the same conditions to determine whether the binding of different antibodies interfered with each other. The binding time was 300 s for each antibody.
The binding value of each antibody was obtained using Data Analysis HT 12.0. To quantify the interference of one antibody binding to another, a binding ratio was calculated to compare each pair of antibodies. The binding ratio is defined as the binding value of the second antibody (analyte 2), divided by the binding value of the first antibody (analyte 1). […] In general, antibody pairs that interfere with each other have the same or overlapping epitopes.

The target in assay [5] is T1, human SIGLEC15 on CHO-S-hSIGLEC15 cells. Kind of assay: flow cytometry, CHO-S cells expressing the target. As to the method:
(§2) CHO-S-hSIGLEC15 cells, CHO-S-mSIGLEC15 cells, CHO-S-fasSIGLEC15 cells or CHO-S-dSIGLEC15 cells were transferred to a 96-well plate at a density of 5×10⁴ cells/well respectively. Serially diluted sample anti-SIGLEC15 antibodies were added to the 96-well plate, and incubated at 4° C. for 30 min. Then, the cells were incubated with the secondary antibody anti-hIgG-Fc-Alex Flour 647 (RL1-H) (Jackson ImmunoResearch Laboratories, Inc., 109-606-170) at 4° C. in the dark for 15 minutes before flow cytometry analysis.

The target in assay [6] is T3, dog SIGLEC15 on CHO-S-dSIGLEC15 cells (dog).
T3 chain: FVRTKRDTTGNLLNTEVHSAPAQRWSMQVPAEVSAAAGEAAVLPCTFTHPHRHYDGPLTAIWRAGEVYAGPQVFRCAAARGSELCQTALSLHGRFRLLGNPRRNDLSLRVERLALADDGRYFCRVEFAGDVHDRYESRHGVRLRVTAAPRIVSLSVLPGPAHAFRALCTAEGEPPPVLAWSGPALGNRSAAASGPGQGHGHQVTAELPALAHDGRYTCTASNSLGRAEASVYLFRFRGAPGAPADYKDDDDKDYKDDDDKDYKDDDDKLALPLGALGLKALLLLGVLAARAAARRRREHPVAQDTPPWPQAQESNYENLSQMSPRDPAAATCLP
Nature of the assay: flow cytometry, CHO-S cells expressing the target. As to the method: as §2

Assay [7] has as its target T4, mouse SIGLEC15 on CHO-S-mSIGLEC15 cells (mouse).
T4 chain: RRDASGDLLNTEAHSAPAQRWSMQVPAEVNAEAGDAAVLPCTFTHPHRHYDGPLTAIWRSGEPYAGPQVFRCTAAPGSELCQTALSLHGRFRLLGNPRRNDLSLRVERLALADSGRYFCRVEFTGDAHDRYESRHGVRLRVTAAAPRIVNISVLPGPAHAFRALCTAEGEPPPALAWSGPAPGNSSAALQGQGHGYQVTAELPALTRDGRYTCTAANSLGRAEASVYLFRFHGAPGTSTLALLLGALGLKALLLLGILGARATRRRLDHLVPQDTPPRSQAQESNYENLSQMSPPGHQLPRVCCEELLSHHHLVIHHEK
Nature of the assay: flow cytometry, CHO-S cells expressing the target. The method, then:
as §2

B1: anti-SIGLEC15 antibody 10C9 (antibody, human IgG1, V domains shown)
VH: QVQLVQSGAEVKKPGATVKVSCKASGYTFTNYGFSWVRQAPGQGLEWMGWINTYNDNTNYAQKFQGRVTMTTDTSTSTAYMELRSLRSDDTAVYYCARDGLWFGELPHYFDYWGQGTLVTVSS
VL: DIQLTQSPLSSPVTLGQPASISCRSSQSLVNSDGETFLSWLQQRPGQPPRLLIYKISNRFSGVPDRFSGSGAGTDFTLKISRVEAEDVGVYYCMQATQFPHTFGQGTKLEIK
Consider B1, for which the EC50 in assay [1] was determined as 0.44 µg/mL; in assay [2], 0.11 µg/mL; in assay [3] it was 0.85 µg/mL. In addition, in assay [4], the binding ratio turned out to be 0.72. Further, the figures for the “Percentage of Positive Cells” value in assay [5], in assay [6] and in assay [7] were 16.3%, 37.3% and 29.3%, respectively.

B2: anti-SIGLEC15 antibody 10A7 (antibody, human IgG1, V domains shown)
VH: EVQLVQSGGGLVQPGGSLRLSCAASGFTFSNYEMNWVRQAPGKGLEWISYISNSGSTIYYADSVKGRFTISRDDAKNSLYLQMNSLRAEDTAVYYCAREDYDSSGYYWFDPWGQGTPVTVSS
VL: DIQLTQSPSSVSASVGDRVTITCRASQGISSWLAWYQQKPGKAPKLLIYAASSLQSGVPSRFSGSGSGTDFTLTINSLQPEDFATYYCQQTNSFPLTFGGGTKVEIK
Take B2: the binding ratio in assay [4] amounted to 0.43. Moreover, the entries for the “Percentage of Positive Cells” value in assay [5], in assay [6] and in assay [7] were 17.9%, 22.8% and 38.5%, respectively.

B3: anti-SIGLEC15 antibody 23F4 (antibody, human IgG1, V domains shown)
VH: QVQLQQWGAGLLKPSETLSLTCAVYGGSFSGYFWSWIRQPPGKGLEWIGEINHSGSTNYNPSLKSRVTLSVDTSKNQFSLKLSSVTAADTAVYYCAREGDSSSWGNWFDPWGQGTLVTVSS
VL: EIVLTQSPGTLSLSPGERATLSCRASQSVSSSYLAWYQQKPGQAPRFLIYGASSRATGIPDRFSGSGSGTDFTLTISRLEPEDFAVYYCQQFGNSPLTFGGGTKVEIK
With B3, the EC50 turned out to be 0.148 µg/mL in assay [1], 0.221 µg/mL in assay [2] and 0.122 µg/mL in assay [3]. Also, the binding ratio in assay [4] is 0.07. Further, the “Percentage of Positive Cells” value worked out at 25.6% in assay [5], 24.6% in assay [6] and 40.5% in assay [7].

For the origin of these results see patent US20250361296A1 (BIOCYTOGEN PHARMACEUTICALS BEIJING, published 2025).
